Values belong to the molecule of their own block, whether it stands above or below them.
Columns and labels:
GAL13-BSA = biological target: T1, GAL13-BSA (Bos taurus, UniProt P02769); experiment: Reactivity of novel monoclonal antibody by competitive ELISA (Example 6); assay type: binding
T1 construct: purchased Sigma-Aldrich Co. LLC
Method: GAL13-BSA was added at 100 μL/well with a concentration of 1 μg/mL and immobilized overnight at 4° C. The plate was washed three times with PBS containing 0.05% (v/v) Tween 20 (PBS-T) and then blocked with a carbonate buffer solution (pH 9.5) containing 0.5% (w/v) gelatin for 1 hour. After preparation of a POD-labeled SJ-5 antibody (0.4 μg/mL) and an anti-glyceraldehyde-derived AGEs polyclonal antibody (6 μg/mL) as a control, 10-fold serial dilution solutions (50 μL each) of GAL13-BSA or control BSA and the POD-labeled SJ-5 antibody or the anti-glyceraldehyde-derived AGEs polyclonal antibody as a control (50 μL) were added to the antigen-immobilized plate, stirred with a plate mixer, and then left standing at room temperature for 1 hour. After washing, an o-phenylenediamine solution (100 μL) prepared into 0.5 mg/mL with a 0.1 M citrate-phosphate buffer solution (pH 5.0) containing 0.02% (w/v) hydrogen peroxide was added to each well and left standing at 25° C. for 10 minutes. Then, color reaction was terminated by the addition of a 1 M sulfuric acid solution (50 μL) to each well. Then, absorbance at 490 nm was measured with a microplate reader.

mouse retinal tissue = experiment: Retinal tissue staining of diabetic mouse and control mouse (Example 36); settings: diabetic mice compared with control mice; antibody 1 mg/mL diluted 500-fold; Alexa 594 secondary
Method: A C57BL6/J mouse (CLEA Japan, Inc.) on 13 days of pregnancy was purchased, and child mice were obtained. For diabetic mice, streptozotocin (FUJIFILM Wako Pure Chemical Corp.) was dissolved at 5 mg/mL in saline (Otsuka Pharmaceutical Co., Ltd.) and subcutaneously administered at 300 μL to a male child mouse 2 days after birth. For control mice, saline was subcutaneously administered at 300 μL to a male child mouse 2 days after birth. After living together with the mother mouse for 4 weeks and subsequent weaning, the diabetic mice were raised with HFD32 (CLEA Japan, Inc.) for 8 weeks. The control mice were raised with CE-2 (CLEA Japan Inc.) for 8 weeks.
1.875 mL of Domitor (Nippon Zenyaku Kogyo Co., Ltd.), 2 mL of midazolam (Sandoz K.K.), 2.5 mL of Vetorphale (Meiji Seika Pharma Co., Ltd.), and 18.625 mL of saline were mixed to prepare a three drug-mixed anesthetic. The body weight of each mouse was measured with a scale (TANITA Corp.), and the three drug-mixed anesthetic was intraperitoneally administered at […]. […]
Acetone (FUJIFILM Wako Pure Chemical Corp.) was incubated for 16 hours or longer in a freezer (Fukushima Industries Corp.) set to −30° C. to prepare cold acetone. […] Then, the fluorescence of Alexa 594 in the retina was observed under a confocal laser microscope (Olympus Corp.).

T1 sequence (P02769 25-607): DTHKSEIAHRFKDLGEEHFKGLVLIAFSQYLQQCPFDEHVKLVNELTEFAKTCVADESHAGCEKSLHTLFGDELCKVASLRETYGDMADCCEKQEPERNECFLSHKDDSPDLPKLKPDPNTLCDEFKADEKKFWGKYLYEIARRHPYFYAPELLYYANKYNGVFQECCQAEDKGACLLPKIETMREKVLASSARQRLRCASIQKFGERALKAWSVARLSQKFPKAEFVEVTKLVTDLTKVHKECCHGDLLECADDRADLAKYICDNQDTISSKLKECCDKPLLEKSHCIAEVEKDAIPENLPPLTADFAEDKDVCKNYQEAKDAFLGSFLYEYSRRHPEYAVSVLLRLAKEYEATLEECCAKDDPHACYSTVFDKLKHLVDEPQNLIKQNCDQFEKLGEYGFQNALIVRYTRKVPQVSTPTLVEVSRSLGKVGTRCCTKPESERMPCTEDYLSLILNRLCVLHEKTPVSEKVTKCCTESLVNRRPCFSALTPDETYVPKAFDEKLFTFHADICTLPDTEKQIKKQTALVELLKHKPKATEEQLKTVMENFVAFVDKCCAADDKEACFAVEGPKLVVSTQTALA

antibody concentration giving similar results, lower than that of the polyclonal antibody (GAL13-BSA; competitive ELISA, versus anti-glyceraldehyde-derived AGEs polyclonal antibody): 15 times
reactivity with GAL13-BSA in the competitive method (GAL13-BSA; immobilized GAL13-BSA, POD-labeled SJ-5 0.4 μg/mL, polyclonal antibody 6 μg/mL): react favorably
B1: SJ-5: mouse monoclonal antibody raised against GAL13-MSA; heavy-chain variable region SEQ ID NO 4, light-chain variable region SEQ ID NO 8 (antibody, listed as Mus musculus, V domains shown)
VH: EVMLVESGGRLVKPGGSLKLSCAASGFTFSSYGMSWVRQTPEKRLEWVATISGGGSYTYYPDSVKGRFTISRDNVKNNLYLQMSSLRSEDTALYYCARRGAYGDYGWFAYWGQGTLVTVSA
VL: DIVLTQSPATLSVTPGDSVSLSCRASQSINNNLHWYQQKSHESPRLLIKCASQSISGIPSRFSGSGSGTDFTLSINSVETEDFGMYFCQQSNSWPLTFGAGTKLELK

B2: PB-1: mouse monoclonal antibody raised against A-peak-BSA; heavy-chain variable region SEQ ID NO 18, light-chain variable region SEQ ID NO 22 (antibody, listed as Mus musculus, V domains shown)
VH: EVRLQQSGPELVKPGTSVKISCKASGYSFTGYYMHWVKQSPVKSLEWIGRIIPYNGATSYNQNFKDKASLTVDKSSRTAYMDLHSLTSEDSAVYYCARSRYYGRAPYYFDYWGQGTTLTVSS
VL: DVVVTQTPLSLPVSLGDQASISCRSSQSIVHSNGNTYLEWYLQKPGQSPKLLIYKVSNRFSGVPDRISGSGSGTDFTLKISRVEAGDLGVYSCFQGSHVPFTFGSGTKLEIK
staining of retinal ganglion cell layer, internal and external granular layers, retinal pigment epithelial cell layer (mouse retinal tissue): bind strongly

From US12391751B2, “Antibody against advanced glycation end products and use thereof” (Bloom Technology Corporation, priority 2018, dated 2025)
